We go through 1 substance from patent publication US20090047240A1.

The target of assay [1] is TLR9 expressed in HEK293 cells (UniProt Q9NR96). As to the kind of experiment: cell-based or functional assay.
The target in assay [2] is TLR7 expressed in HEK293 cells (UniProt Q9NYK1). Kind of assay: cell-based or functional assay.
Chain of TLR7 expressed in HEK293 cells (Q9NYK1 27-1049 limits assumed): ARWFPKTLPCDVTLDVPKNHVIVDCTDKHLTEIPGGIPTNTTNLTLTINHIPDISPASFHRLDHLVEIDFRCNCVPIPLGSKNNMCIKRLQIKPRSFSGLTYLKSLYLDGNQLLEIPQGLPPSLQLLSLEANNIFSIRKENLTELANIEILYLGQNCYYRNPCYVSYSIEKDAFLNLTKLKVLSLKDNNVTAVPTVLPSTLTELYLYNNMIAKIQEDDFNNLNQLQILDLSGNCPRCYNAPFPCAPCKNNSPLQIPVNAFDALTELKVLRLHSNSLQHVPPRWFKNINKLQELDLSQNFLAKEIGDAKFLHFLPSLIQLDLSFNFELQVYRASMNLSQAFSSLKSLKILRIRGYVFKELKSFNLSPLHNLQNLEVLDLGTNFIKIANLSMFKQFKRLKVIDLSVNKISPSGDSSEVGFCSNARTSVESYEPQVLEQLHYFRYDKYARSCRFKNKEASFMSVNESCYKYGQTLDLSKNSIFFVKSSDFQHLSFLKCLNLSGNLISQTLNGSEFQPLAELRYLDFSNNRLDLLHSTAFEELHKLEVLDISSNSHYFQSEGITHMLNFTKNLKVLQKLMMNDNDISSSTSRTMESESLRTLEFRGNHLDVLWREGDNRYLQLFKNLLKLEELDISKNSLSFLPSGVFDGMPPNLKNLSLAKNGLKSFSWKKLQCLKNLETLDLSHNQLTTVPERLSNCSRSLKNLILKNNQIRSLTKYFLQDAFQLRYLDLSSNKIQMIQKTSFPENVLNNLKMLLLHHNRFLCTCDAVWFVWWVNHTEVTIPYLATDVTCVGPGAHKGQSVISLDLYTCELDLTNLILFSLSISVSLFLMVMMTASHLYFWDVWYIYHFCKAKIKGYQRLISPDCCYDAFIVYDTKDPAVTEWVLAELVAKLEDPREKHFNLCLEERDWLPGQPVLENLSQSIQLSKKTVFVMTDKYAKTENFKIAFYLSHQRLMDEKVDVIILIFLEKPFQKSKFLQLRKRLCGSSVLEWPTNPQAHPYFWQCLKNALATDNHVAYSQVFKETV

Chain of TLR9 expressed in HEK293 cells (Q9NR96 26-1032 limits assumed): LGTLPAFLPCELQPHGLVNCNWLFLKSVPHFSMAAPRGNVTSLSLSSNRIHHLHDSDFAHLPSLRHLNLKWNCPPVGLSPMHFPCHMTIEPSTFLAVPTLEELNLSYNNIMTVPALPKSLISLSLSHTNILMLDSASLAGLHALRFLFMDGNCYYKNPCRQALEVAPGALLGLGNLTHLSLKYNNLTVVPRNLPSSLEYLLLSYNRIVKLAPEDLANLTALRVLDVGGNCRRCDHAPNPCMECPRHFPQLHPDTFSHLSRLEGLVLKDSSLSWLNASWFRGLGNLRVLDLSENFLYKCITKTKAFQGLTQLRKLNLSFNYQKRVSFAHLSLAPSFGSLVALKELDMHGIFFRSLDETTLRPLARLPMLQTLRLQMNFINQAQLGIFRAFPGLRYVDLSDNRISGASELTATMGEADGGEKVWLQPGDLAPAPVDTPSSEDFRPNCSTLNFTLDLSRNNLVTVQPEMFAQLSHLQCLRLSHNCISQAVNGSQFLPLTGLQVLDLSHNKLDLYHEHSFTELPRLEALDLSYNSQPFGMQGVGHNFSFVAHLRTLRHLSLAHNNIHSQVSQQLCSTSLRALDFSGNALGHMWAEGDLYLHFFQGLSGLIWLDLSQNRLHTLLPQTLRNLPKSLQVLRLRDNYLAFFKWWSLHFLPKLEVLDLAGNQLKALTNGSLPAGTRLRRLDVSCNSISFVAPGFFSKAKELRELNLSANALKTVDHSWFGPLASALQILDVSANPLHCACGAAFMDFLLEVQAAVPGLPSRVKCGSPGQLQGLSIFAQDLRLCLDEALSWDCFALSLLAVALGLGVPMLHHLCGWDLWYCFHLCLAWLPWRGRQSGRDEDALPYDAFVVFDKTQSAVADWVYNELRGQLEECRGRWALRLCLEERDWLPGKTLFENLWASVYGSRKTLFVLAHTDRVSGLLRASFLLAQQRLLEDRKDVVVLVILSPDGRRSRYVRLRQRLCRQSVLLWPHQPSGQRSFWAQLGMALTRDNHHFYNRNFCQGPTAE

“recombinant human Cpn10 with an N-terminal Alanine residue (from UniProt P61604 2-102)”: the NF-κB activation (luciferase reporter) in HEK293 cells expressing TLR9, stimulated with CpG DNA (fold reduction) in assay [1] fell in the range of 5 to 10. The substance also came in with an NF-κB activation (luciferase reporter) in HEK293 cells expressing TLR7 and TLR4, stimulated with R848 (fold reduction) in assay [2] of 2.
